Test results: patent publication US20150301024

B1: recombinant human caspase 3 (protein)
chain: SGISLDNSYKMDYPEMGLCIIINNKNFHKSTGMTSRSGTDVDAANLRETFRNLKYEVRNKNDLTREEIVELMRDVSKEDHSKRSSFVCVLLSHGEEGIIFGTNGPVDLKKITNFFRGDRCRSLTGKPKLFIIQACRGTELDCGIETDSGVDDDMACHKIPVEADFLYAYSTAPGYYSWRNSKDGSWFIQSLCAMLKQYADKLEFMHILTRVNRKVATEFESFSFDATFHAKKQIPCIVSMLTKELYFYH
B2: recombinant human caspase 7 (protein)
chain: AKPDRSSFVPSLFSKKKKNVTMRSIKTTRDRVPTYQYNMNFEKLGKCIIINNKNFDKVTGMGVRNGTDKDAEALFKCFRSLGFDVIVYNDCSCAKMQDLLKKASEEDHTNAACFACILLSHGEENVIYGKDGVTPIKDLTAHFRGDRCKTLLEKPKLFFIQACRGTELDDGIQADSGPINDTDANPRYKIPVEADFLFAYSTVPGYYSWRSPGRGSWFVQALCSILEEHGKDLEIMQILTRVNDRVARHFESQSDDPHFHEKKQIPCVVSMLTKELYFSQ

Target: hXkr8-GFP (wild-type human Xkr8 fused to GFP at its C-terminus)

Protein | cleavage of the GFP-fusion protein, Western blot with anti-GFP
B1 | caspase 3 and caspase 7 cleaved the wild-type but not 2DA mutant hXkr8
B2 | caspase 3 and caspase 7 cleaved the wild-type but not 2DA mutant hXkr8
